Results as given in paper PMC12412656.

What was measured:
[1] = target: DLC1 TBS (465-489C) synthetic peptide, fluorescein-labelled; test: fluorescence polarisation; R7R8 serially diluted (maximum 160 μM) into 0.5 μM fluorescein-labelled peptide; PBS with 1 mM TCEP and 0.02% Tween-20; room temperature; triplicate; one-site total binding model
[2] = target: RIAM TBS1 (4-30C) synthetic peptide, fluorescein-labelled; test: as above
[3] = target: talin 1 R7R8 domain protein (mouse) (mouse); test: fluorescence polarisation; competition: R7R8 (30 μM) pre-incubated with DLC1 TBS-F (1 μM) 20 min at room temperature, diluted 1:2 into unlabeled peptide at twofold increasing concentrations up to 160 μM; one-site Ki fit

Kd [1] | Kd [2] | Ki [3] | Molecule
4.92 µM | 9.21 µM |  | talin 1 R7R8 domain protein (mouse) (domain or fragment)
 |  | 90 µM | SEDIDQMFSTLLGEMDLLTQSLGVDTC [RIAM TBS1 (4-30C) synthetic peptide, unlabeled]
